Source: paper PMC3005984, “Identification and Partial Characterization of an L-Tyrosine Aminotransferase (TAT) from Arabidopsis thaliana” (Biochemistry Research International, 2010)

Columns and labels:
Format in all cases: biochemical, Arabidopsis thaliana
[1] = substrate: N[C@@H](Cc1ccc(O)cc1)C(=O)O; experiment: forward assay, 4-hydroxyphenylpyruvate at A331, nonlinear regression; details: acceptor 2-ketoglutarate at saturation, 100 mM HEPES-NaOH pH 8.2, 30°C
Source text: forward assay, 4-hydroxyphenylpyruvate at A331, nonlinear regression on At5g36160 (L-tyrosine aminotransferase, TAT)

[2] = substrate: O=C(O)CCC(=O)C(=O)O; experiment: forward assay, product absorbance, nonlinear regression; details: amino donor at saturation (donor for this constant only in supplement), 100 mM HEPES-NaOH pH 8.2, 30°C
Source text: forward assay, product absorbance, nonlinear regression on At5g36160 (L-tyrosine aminotransferase, TAT)

[3] = substrate: N[C@@H](Cc1ccccc1)C(=O)O; experiment: forward assay, phenylpyruvate at A320, nonlinear regression; details: acceptor 2-ketoglutarate at saturation, 100 mM HEPES-NaOH pH 8.2, 30°C
Source text: forward assay, phenylpyruvate at A320, nonlinear regression on At5g36160 (L-tyrosine aminotransferase, TAT)

[4] = substrate: N[C@@H](CCC(=O)O)C(=O)O; experiment: reverse assay, coupled to 2-ketoglutarate dehydrogenase, NADH at A340, nonlinear regression; details: amino acceptor at saturation (acceptor for this constant only in supplement), 100 mM HEPES-NaOH pH 8.2, 30°C
Source text: (§1) reverse assay, coupled to 2-ketoglutarate dehydrogenase, NADH at A340, nonlinear regression on At5g36160 (L-tyrosine aminotransferase, TAT)

[5] = substrate: O=C(O)C(=O)Cc1ccc(O)cc1; experiment: as above; details: amino donor glutamate at saturation, 100 mM HEPES-NaOH pH 8.2, 30°C
Source text: as §1

[6] = substrate: O=C(O)C(=O)Cc1ccccc1; experiment: as above; details: amino donor glutamate at saturation, 100 mM HEPES-NaOH pH 8.2, 30°C
Source text: as §1

B1: At5g36160 (L-tyrosine aminotransferase, TAT) (Arabidopsis thaliana) (protein)
chain: MGENGAKRWNFGANEVVERSNSLTIRDYLNTLINCLDGGDVRPVIPLGHGDPSPFPSFRTDQAAVEAICDAVRSTKFNNYSSSSGVPVARKAVAEYLSSDLSYQISPNDVHITAGCVQAIEILISALAIPGANILLPRPTYPMYDSRAAFCQLEVRYFDLLPENGWDVDLDGVEALADDKTVAILVINPCNPCGNVFSRQHLQKIAETACKLGILVIADEVYDHFAFGDKPFVSMAEFAELVPVIVLGAISKRWFVPGWRLGWMVTLDPHGIMKDSGFVQTLINVVNMSTDPATFIQGAMPDIIGNTKEEFFSSKLEMVKKCAEICYEELMKIPCITCPCKPEGSMFTMVKLNFSLLEDISDDLDFCSKLAKEESMIILPGQAVGLKNWLRITFAVELELLIEGFSRLKNFTERHSKNQP
notes: full-length cDNA in pET30a, N-terminal His6 and S-tag kept, E. coli BL21-CodonPlus-RIPL, Talon purified, about 52 kDa on SDS-PAGE; EC 2.6.1.5
Work on B1 yielded a Km [1] of 190 ± 160 µM, a kcat [1] of 0.08 s⁻¹ and a Km [2] of 1200 ± 270 µM. For the same protein, the kcat [2] was 0.08 s⁻¹, the Km [3] was 840 ± 200 µM and the kcat [3] was 0.08 s⁻¹. It also gave a Km [4] of 1400 ± 160 µM, a kcat [4] of 6.1 s⁻¹ and a Km [5] of 220 ± 50 µM. It also gave a kcat [5] of 6.1 s⁻¹, a Km [6] of 130 ± 60 µM and a kcat [6] of 6.1 s⁻¹.
